Measurements taken from PMC6793440 (Journal of Experimental Botany, 2019).

B1: GST-tagged PYL2 (PYL2–GST) (receptor)
chain: MSSSPAVKGLTDEEQKTLEPVIKTYHQFEPDPTTCTSLITQRIHAPASVVWPLIRRFDNPERYKHFVKRCRLISGDGDVGSVREVTVISGLPASTSTERLEFVDDDHRVLSFRVVGGEHRLKNYKSVTSVNEFLNQDSGKVYTVVLESYTVDIPEGNTEEDTKMFVDTVVKLNLQKLGVAATSAPMHDDE
B2: GST-tagged PYL4 (PYL4–GST) (receptor)
chain: MLAVHRPSSAVSDGDSVQIPMMIASFQKRFPSLSRDSTAARFHTHEVGPNQCCSAVIQEISAPISTVWSVVRRFDNPQAYKHFLKSCSVIGGDGDNVGSLRQVHVVSGLPAASSTERLDILDDERHVISFSVVGGDHRLSNYRSVTTLHPSPISGTVVVESYVVDVPPGNTKEETCDFVDVIVRCNLQSLAKIAENTAAESKKKMSL

Molecular target: T1, His-labeled kinase domain of CEPR2 (CEPR2^KD-His, amino acids 642–977) (Arabidopsis thaliana, UniProt Q9C7T7 642-977)
T1 sequence: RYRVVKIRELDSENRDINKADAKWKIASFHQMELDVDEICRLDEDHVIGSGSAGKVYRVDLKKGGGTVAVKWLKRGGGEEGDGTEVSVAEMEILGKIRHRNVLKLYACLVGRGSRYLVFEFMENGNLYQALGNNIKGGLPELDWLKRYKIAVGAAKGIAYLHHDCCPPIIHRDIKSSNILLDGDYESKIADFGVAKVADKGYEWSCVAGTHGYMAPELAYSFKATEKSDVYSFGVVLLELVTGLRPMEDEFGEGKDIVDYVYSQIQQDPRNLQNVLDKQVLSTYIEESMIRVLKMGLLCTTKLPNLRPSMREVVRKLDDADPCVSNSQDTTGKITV
Experiment: pull-down

| Binder | binding result |
| --- | --- |
| B1 | binds |
| B2 | binds |
